{"source": "patent US20140213529A1", "target": "CD22 (UniProt P20273)", "sequence (P20273 20-847 limits assumed)": "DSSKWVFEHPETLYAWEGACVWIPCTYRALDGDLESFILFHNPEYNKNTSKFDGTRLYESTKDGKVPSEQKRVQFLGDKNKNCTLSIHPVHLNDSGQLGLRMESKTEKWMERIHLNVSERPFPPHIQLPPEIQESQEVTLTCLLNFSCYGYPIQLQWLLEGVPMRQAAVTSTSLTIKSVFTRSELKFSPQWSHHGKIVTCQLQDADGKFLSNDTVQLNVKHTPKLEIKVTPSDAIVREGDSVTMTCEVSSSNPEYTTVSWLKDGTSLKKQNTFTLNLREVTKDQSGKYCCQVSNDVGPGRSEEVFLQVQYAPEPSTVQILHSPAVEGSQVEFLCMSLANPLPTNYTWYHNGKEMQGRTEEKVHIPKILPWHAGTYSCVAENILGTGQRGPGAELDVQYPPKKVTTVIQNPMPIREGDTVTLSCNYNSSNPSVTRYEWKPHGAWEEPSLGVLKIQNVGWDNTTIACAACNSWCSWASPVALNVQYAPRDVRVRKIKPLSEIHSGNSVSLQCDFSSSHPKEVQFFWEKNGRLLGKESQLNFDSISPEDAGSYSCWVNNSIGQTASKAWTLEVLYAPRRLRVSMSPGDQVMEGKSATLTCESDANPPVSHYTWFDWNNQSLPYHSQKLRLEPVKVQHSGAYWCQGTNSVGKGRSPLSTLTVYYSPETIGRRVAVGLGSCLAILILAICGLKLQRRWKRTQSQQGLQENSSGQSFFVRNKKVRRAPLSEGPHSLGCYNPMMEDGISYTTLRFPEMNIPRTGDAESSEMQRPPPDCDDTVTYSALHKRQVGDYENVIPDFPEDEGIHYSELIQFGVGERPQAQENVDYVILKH", "test": "cell-based or functional assay"}
{"substance": "HA22-LR", "values": [{"measurement": "cytotoxicity IC50 (ng/ml) on CA46 cells", "result": 0.11, "unit": "ng/mL"}, {"measurement": "cytotoxicity IC50 (ng/ml) on Daudi cells", "result": 0.18, "unit": "ng/mL"}, {"measurement": "cytotoxicity IC50 (ng/ml) on Raji cells", "result": 0.41, "unit": "ng/mL"}]}
